# From PMC5458252, “Niclosamide is a potential therapeutic for familial adenomatosis polyposis by disrupting Axin-GSK3 interaction” (Oncotarget, 2017)
# B1: 19-mer wild type Axin peptide (peptide)
# peptide: VEPQKFAEELIHRLEAVQR
# notes: Axin1, residues 383-401; source: synthetic peptide
# Biological target: T1, His-tagged recombinant GSK3β (UniProt P49841 1-420)
# T1 construct: GSK3β, recombinant; source: sf9 insect cells, recombinant, purified
# Assay: SPR; ProteOn XPR36; GSK3β immobilised on a GLH sensor chip; peptides in PBS with Tween 20 and 1% DMSO flowed at 100 μl/min; Langmuir model
# Settings: both partners purified
# T1 sequence (P49841 whole entry): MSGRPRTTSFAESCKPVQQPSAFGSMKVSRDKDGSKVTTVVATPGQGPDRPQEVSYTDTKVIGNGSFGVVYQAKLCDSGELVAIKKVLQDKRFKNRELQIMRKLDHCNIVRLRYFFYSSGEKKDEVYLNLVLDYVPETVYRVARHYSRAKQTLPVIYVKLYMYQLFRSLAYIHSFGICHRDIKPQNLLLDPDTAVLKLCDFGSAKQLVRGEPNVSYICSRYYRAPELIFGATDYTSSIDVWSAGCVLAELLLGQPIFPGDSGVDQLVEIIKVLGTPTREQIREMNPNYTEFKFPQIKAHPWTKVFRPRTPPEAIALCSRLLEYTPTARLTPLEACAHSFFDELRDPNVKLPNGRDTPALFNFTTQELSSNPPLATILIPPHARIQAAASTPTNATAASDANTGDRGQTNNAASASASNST
binder,measurement,value
B1,Kd,11.9 µM
